# T1: GST-Pdcd4 wt (human, UniProt Q53EL6 1-469)
# T1 sequence: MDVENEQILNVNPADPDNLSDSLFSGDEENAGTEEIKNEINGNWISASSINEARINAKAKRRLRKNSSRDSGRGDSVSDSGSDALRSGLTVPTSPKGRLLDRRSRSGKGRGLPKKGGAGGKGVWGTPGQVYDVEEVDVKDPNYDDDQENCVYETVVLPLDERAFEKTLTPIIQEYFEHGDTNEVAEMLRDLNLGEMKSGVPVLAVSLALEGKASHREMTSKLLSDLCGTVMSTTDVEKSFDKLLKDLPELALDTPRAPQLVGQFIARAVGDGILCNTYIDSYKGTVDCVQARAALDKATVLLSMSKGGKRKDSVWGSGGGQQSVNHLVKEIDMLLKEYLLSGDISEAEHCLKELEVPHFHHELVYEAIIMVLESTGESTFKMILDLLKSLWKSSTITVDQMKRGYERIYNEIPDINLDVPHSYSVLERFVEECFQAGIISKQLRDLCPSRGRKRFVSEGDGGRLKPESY
# Tests used:
# GST-Pdcd4 wt = target: T1, GST-Pdcd4 wt; test: EMSA; EMSA: 10 mM Tris-HCl pH 7.8, 100 mM NaCl, 1 mM EDTA, 2% ficoll, 30 min on ice; blot: 10 mM Tris-HCl pH 7.5, 5 mM KCl, 2 mM MgCl2, room temperature; poly(U): 10; details: protein: recombinant; tags: GST; label: 5' 32P; single strand
# His-PABP-RRM1-4 = His-PABP-RRM1-4 (mouse, UniProt P29341 1-375); test: as above; details: protein: recombinant; tags: His; label: 5' 32P; single strand
# His-PABP-RRM1-4, sequence (P29341 1-375): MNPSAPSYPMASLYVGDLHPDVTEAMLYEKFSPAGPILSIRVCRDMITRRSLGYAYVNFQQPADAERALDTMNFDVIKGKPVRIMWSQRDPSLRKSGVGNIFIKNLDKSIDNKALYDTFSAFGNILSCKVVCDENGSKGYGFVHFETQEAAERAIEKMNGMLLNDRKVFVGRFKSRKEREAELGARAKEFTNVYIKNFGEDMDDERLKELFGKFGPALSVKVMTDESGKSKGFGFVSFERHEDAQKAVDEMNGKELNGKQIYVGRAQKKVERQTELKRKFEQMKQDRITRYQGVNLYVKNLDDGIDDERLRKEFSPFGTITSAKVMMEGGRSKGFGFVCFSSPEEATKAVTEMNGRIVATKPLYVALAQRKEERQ
binder,measurement,setting,value
AAAAAAAAAAAAAAAAAAAAAAAAA (ssRNA) [oligo(A)25],binding result,GST-Pdcd4 wt,no binding
same,binding result,His-PABP-RRM1-4,binds

# From paper PMC4176178, “An evolutionarily conserved interaction of tumor suppressor protein Pdcd4 with the poly(A)-binding protein contributes to translation suppression by Pdcd4”
